Consider two substances from publication PMC3919030.

For assay [1], the target named is Acidianus hospitalis Vps4 (AhosVps4, wild type, full length) (Acidianus hospitalis). The experiment in a line: SEC.
In assay [2] the target is Vps4p (Saccharomyces cerevisiae) (UniProt P52917). As to conditions: cited from earlier work.
Vps4p (Saccharomyces cerevisiae), sequence (P52917 whole entry): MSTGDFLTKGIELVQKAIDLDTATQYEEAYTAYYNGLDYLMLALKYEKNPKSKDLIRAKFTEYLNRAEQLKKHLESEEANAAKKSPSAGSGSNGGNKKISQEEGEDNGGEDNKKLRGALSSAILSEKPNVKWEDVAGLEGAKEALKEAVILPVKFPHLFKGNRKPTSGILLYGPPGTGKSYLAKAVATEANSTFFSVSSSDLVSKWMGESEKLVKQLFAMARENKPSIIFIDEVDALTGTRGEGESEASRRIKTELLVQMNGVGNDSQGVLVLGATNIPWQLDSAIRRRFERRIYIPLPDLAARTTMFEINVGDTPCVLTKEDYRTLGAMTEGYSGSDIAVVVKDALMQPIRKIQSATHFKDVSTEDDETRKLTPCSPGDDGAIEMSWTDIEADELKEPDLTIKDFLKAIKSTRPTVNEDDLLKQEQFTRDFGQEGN

Vta1p, sequence (Q06263 whole entry): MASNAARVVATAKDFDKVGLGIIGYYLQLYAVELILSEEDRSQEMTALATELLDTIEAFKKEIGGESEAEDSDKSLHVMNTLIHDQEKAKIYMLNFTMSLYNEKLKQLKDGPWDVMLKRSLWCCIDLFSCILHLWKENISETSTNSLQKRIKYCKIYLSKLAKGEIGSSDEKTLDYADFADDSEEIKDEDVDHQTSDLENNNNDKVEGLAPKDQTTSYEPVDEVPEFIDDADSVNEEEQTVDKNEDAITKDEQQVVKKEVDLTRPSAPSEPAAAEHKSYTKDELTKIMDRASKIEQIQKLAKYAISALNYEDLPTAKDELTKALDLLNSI

One may read the stoichiometry N as the number of molecules, sites or subunits per partner or assembly. With “Acidianus hospitalis Vps4 (AhosVps4, wild type, full length) (enzyme)”, in assay [1], the stoichiometry N is 6. As usually defined, the Kd is the free concentration of one partner at which half of the binding sites on the other are occupied at equilibrium, for simple one-to-one binding. For the substance Vta1p (from UniProt Q06263), in assay [2], the dissociation constant (Kd) is 17 µM.
